In IntAct's records for PubMed 31515488:

B1: PiggyBac transposable element-derived protein 1 (Homo sapiens), Q96JS3 (parent)
chain: MYEALPGPAPENEDGLVKVKEEDPTWEQVCNSQEGSSHTQEICRLRFRHFCYQEAHGPQEALAQLRELCHQWLRPEMHTKEQIMELLVLEQFLTILPKELQPCVKTYPLESGEEAVTVLENLETGSGDTGQQASVYIQGQDMHPMVAEYQGVSLECQSLQLLPGITTLKCEPPQRPQGNPQEVSGPVPHGSAHLQEKNPRDKAVVPVFNPVRSQTLVKTEEETAQAVAAEKWSHLSLTRRNLCGNSAQETVMSLSPMTEEIVTKDRLFKAKQETSEEMEQSGEASGKPNRECAPQIPCSTPIATERTVAHLNTLKDRHPGDLWARMHISSLEYAAGDITRKGRKKDKARVSELLQGLSFSGDSDVEKDNEPEIQPAQKKLKVSCFPEKSWTKRDIKPNFPSWSALDSGLLNLKSEKLNPVELFELFFDDETFNLIVNETNNYASQKNVSLEVTVQEMRCVFGVLLLSGFMRHPRREMYWEVSDTDQNLVRDAIRRDRFELIFSNLHFADNGHLDQKDKFTKLRPLIKQMNKNFLLYAPLEEYYCFDKSMCECFDSDQFLNGKPIRIGYKIWCGTTTQGYLVWFEPYQEESTMKVDEDPDLGLGGNLVMNFADVLLERGQYPYHLCFDSFFTSVKLLSALKKKGVRATGTIRENRTEKCPLMNVEHMKKMKRGYFDFRIEENNEIILCRWYGDGIISLCSNAVGIEPVNEVSCCDADNEEIPQISQPSIVKVYDECKEGVAKMDQIISKYRVRIRSKKWYSILVSYMIDVAMNNAWQLHRACNPGASLDPLDFRRFVAHFYLEHNAHLSD
B2: Keratin-associated protein 5-9 (Homo sapiens), P26371 (parent)
chain: MGCCGCSGGCGSSCGGCDSSCGSCGSGCRGCGPSCCAPVYCCKPVCCCVPACSCSSCGKRGCGSCGGSKGGCGSCGCSQCSCCKPCCCSSGCGSSCCQCSCCKPYCSQCSCCKPCCSSSGRGSSCCQSSCCKPCCSSSGCGSSCCQSSCCKPCCSQSRCCVPVCYQCKI
partner: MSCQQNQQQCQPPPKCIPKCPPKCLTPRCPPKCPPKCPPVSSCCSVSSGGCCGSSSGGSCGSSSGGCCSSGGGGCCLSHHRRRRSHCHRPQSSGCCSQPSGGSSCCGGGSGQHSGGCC
B3: Keratin, type II cytoskeletal 2 epidermal (Homo sapiens), P35908 (parent)
chain: MSCQISCKSRGRGGGGGGFRGFSSGSAVVSGGSRRSTSSFSCLSRHGGGGGGFGGGGFGSRSLVGLGGTKSISISVAGGGGGFGAAGGFGGRGGGFGGGSSFGGGSGFSGGGFGGGGFGGGRFGGFGGPGGVGGLGGPGGFGPGGYPGGIHEVSVNQSLLQPLNVKVDPEIQNVKAQEREQIKTLNNKFASFIDKVRFLEQQNQVLQTKWELLQQMNVGTRPINLEPIFQGYIDSLKRYLDGLTAERTSQNSELNNMQDLVEDYKKKYEDEINKRTAAENDFVTLKKDVDNAYMIKVELQSKVDLLNQEIEFLKVLYDAEISQIHQSVTDTNVILSMDNSRNLDLDSIIAEVKAQYEEIAQRSKEEAEALYHSKYEELQVTVGRHGDSLKEIKIEISELNRVIQRLQGEIAHVKKQCKNVQDAIADAEQRGEHALKDARNKLNDLEEALQQAKEDLARLLRDYQELMNVKLALDVEIATYRKLLEGEECRMSGDLSSNVTVSVTSSTISSNVASKAAFGGSGGRGSSSGGGYSSGSSSYGSGGRQSGSRGGSGGGGSISGGGYGSGGGSGGRYGSGGGSKGGSISGGGYGSGGGKHSSGGGSRGGSSSGGGYGSGGGGSSSVKGSSGEAFGSSVTFSFR
partner: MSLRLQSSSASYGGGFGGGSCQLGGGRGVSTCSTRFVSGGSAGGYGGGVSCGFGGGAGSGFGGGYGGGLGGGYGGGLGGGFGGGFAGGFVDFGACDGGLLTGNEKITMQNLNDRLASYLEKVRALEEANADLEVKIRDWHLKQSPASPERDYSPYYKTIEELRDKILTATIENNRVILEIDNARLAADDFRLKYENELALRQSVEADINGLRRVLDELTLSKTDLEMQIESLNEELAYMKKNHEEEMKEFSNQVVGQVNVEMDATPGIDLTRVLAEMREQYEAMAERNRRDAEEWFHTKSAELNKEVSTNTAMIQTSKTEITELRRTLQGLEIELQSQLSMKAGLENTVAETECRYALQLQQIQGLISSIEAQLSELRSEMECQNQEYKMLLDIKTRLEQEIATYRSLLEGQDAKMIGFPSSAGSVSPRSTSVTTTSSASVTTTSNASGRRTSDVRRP
B4: Lebercilin-like protein (Homo sapiens), O95447 (parent)
chain: MSLADLTKTNIDEHFFGVALENNRRSAACKRSPGTGDFSRNSNASNKSVDYSRSQCSCGSLSSQYDYSEDFLCDCSEKAINRNYLKQPVVKEKEKKKYNVSKISQSKGQKEISVEKKHTWNASLFNSQIHMIAQRRDAMAHRILSARLHKIKGLKNELADMHHKLEAILTENQFLKQLQLRHLKAIGKYENSQNNLPQIMAKHQNEVKNLRQLLRKSQEKERTLSRKLRETDSQLLKTKDILQALQKLSEDKNLAEREELTHKLSIITTKMDANDKKIQSLEKQLRLNCRAFSRQLAIETRKTLAAQTATKTLQVEVKHLQQKLKEKDRELEIKNIYSHRILKNLHDTEDYPKVSSTKSVQADRKILPFTSMRHQGTQKSDVPPLTTKGKKATGNIDHKEKSTEINHEIPHCVNKLPKQEDSKRKYEDLSGEEKHLEVQILLENTGRQKDKKEDQEKKNIFVKEEQELPPKIIEVIHPERESNQEDVLVREKFKRSMQRNGVDDTLGKGTAPYTKGPLRQRRHYSFTEATENLHHGLPASGGPANAGNMRYSHSTGKHLSNREEMELEHSDSGYEPSFGKSSRIKVKDTTFRDKKSSLMEELFGSGYVLKTDQSSPGVAKGSEEPLQSKESHPLPPSQASTSHAFGDSKVTVVNSIKPSSPTEGKRKIII
B5: N-chimaerin (Homo sapiens), P15882 (parent)
chain: MALTLFDTDEYRPPVWKSYLYQLQQEAPHPRRITCTCEVENRPKYYGREFHGMISREAADQLLIVAEGSYLIRESQRQPGTYTLALRFGSQTRNFRLYYDGKHFVGEKRFESIHDLVTDGLITLYIETKAAEYIAKMTINPIYEHVGYTTLNREPAYKKHMPVLKETHDERDSTGQDGVSEKRLTSLVRRATLKENEQIPKYEKIHNFKVHTFRGPHWCEYCANFMWGLIAQGVKCADCGLNVHKQCSKMVPNDCKPDLKHVKKVYSCDLTTLVKAHTTKRPMVVDMCIREIESRGLNSEGLYRVSGFSDLIEDVKMAFDRDGEKADISVNMYEDINIITGALKLYFRDLPIPLITYDAYPKFIESAKIMDPDEQLETLHEALKLLPPAHCETLRYLMAHLKRVTLHEKENLMNAENLGIVFGPTLMRSPELDAMAALNDIRYQRLVVELLIKNEDILF
B6: Syntenin-2 (Homo sapiens), Q9H190 (parent)
chain: MSSLYPSLEDLKVDQAIQAQVRASPKMPALPVQATAISPPPVLYPNLAELENYMGLSLSSQEVQESLLQIPEGDSTAVSGPGPGQMVAPVTGYSLGVRRAEIKPGVREIHLCKDERGKTGLRLRKVDQGLFVQLVQANTPASLVGLRFGDQLLQIDGRDCAGWSSHKAHQVVKKASGDKIVVVVRDRPFQRTVTMHKDSMGHVGFVIKKGKIVSLVKGSSAARNGLLTNHYVCEVDGQNVIGLKDKKIMEILATAGNVVTLTIIPSVIYEHMVKKLPPVLLHHTMDHSIPDA
partner: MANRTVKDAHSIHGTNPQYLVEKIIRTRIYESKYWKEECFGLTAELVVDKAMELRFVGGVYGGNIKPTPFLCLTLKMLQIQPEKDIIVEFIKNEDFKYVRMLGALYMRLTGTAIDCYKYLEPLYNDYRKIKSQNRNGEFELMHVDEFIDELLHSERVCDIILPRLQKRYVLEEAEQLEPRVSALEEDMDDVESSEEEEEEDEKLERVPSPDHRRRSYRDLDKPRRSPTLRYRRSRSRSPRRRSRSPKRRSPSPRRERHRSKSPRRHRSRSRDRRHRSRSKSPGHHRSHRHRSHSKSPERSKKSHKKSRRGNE
B7: Ras and Rab interactor 1 (Homo sapiens), Q13671 (parent)
chain: MESPGESGAGSPGAPSPSSFTTGHLAREKPAQDPLYDVPNASGGQAGGPQRPGRVVSLRERLLLTRPVWLQLQANAAAALHMLRTEPPGTFLVRKSNTRQCQALCMRLPEASGPSFVSSHYILESPGGVSLEGSELMFPDLVQLICAYCHTRDILLLPLQLPRAIHHAATHKELEAISHLGIEFWSSSLNIKAQRGPAGGPVLPQLKARSPQELDQGTGAALCFFNPLFPGDLGPTKREKFKRSFKVRVSTETSSPLSPPAVPPPPVPVLPGAVPSQTERLPPCQLLRRESSVGYRVPAGSGPSLPPMPSLQEVDCGSPSSSEEEGVPGSRGSPATSPHLGRRRPLLRSMSAAFCSLLAPERQVGRAAAALMQDRHTAAGQLVQDLLTQVRAGPEPQELQGIRQALSRARAMLSAELGPEKLLSPKRLEHVLEKSLHCSVLKPLRPILAARLRRRLAADGSLGRLAEGLRLARAQGPGAFGSHLSLPSPVELEQVRQKLLQLLRTYSPSAQVKRLLQACKLLYMALRTQEGEGAGADEFLPLLSLVLAHCDLPELLLEAEYMSELLEPSLLTGEGGYYLTSLSASLALLSGLGQAHTLPLSPVQELRRSLSLWEQRRLPATHCFQHLLRVAYQDPSSGCTSKTLAVPPEASIATLNQLCATKFRVTQPNTFGLFLYKEQGYHRLPPGALAHRLPTTGYLVYRRAEWPETQGAVTEEEGSGQSEARSRGEEQGCQGDGDAGVKASPRDIREQSETTAEGGQGQAQEGPAQPGEPEAEGSRAAEE
partner: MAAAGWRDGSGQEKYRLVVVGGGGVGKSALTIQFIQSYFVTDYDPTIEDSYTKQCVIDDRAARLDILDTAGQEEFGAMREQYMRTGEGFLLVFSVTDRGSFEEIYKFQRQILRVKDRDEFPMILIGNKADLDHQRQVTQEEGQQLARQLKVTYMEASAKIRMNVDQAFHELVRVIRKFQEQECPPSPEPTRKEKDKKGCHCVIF

Variants of: B1
Settings: with traf2_human TRAF2, Q12933
Chain of traf2_human TRAF2, Q12933 (Q12933 whole entry): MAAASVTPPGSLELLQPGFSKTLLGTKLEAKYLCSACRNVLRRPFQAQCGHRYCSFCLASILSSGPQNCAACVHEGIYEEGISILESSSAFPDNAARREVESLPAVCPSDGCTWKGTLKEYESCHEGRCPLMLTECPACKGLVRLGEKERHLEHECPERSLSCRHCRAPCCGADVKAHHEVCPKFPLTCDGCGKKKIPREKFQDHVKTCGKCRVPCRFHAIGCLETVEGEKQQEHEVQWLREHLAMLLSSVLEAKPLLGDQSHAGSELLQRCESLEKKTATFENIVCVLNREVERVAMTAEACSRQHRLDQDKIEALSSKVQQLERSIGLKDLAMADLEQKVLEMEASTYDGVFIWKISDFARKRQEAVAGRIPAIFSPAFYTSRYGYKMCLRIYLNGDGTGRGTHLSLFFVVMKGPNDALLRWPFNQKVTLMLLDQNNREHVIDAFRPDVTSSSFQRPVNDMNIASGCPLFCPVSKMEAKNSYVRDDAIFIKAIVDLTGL

effect of a mutation on the interaction | Variant
with no effect | P256L
with no effect | N398S
disrupting interaction strength | G244E
with no effect | I678V

Variants of: B1
Settings: with zsc22_human ZSCAN22, P10073
Chain of zsc22_human ZSCAN22, P10073 (P10073 whole entry): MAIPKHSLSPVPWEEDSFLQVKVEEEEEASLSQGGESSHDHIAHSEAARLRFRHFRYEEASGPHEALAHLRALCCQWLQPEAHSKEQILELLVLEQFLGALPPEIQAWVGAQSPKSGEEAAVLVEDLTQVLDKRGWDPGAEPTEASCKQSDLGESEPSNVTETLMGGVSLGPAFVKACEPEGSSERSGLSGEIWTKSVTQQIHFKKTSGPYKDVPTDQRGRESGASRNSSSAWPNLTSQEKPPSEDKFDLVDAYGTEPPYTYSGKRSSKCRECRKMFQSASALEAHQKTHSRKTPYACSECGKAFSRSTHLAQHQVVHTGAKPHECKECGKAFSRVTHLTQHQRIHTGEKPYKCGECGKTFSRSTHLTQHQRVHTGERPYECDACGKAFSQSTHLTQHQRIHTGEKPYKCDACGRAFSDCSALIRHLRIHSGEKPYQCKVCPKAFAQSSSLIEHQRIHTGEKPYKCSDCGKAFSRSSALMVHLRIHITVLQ

effect of a mutation on the interaction | Variant
disrupting interaction strength | P256L
with no effect | N398S
with no effect | G244E
with no effect | I678V

Variants of: B1
Settings: with zn446_human ZNF446, Q9NWS9
Chain of zn446_human ZNF446, Q9NWS9 (Q9NWS9 whole entry): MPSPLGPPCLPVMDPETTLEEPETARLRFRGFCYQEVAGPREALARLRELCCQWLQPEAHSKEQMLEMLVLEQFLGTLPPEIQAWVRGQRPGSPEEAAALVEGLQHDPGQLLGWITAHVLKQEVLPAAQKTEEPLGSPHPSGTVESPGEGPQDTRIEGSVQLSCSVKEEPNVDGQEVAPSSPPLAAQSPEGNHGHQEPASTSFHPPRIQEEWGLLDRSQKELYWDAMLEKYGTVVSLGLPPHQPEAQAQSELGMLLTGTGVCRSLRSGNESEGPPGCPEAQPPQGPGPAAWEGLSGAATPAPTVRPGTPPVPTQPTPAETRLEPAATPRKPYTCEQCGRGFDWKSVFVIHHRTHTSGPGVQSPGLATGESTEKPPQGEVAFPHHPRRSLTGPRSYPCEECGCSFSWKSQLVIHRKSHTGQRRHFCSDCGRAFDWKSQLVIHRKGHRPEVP

effect of a mutation on the interaction | Variant
disrupting interaction strength | P256L
with no effect | N398S
with no effect | G244E
with no effect | I678V

Variants of: B1
Settings: with znf24_human ZNF24, P17028
Chain of znf24_human ZNF24, P17028 (P17028 whole entry): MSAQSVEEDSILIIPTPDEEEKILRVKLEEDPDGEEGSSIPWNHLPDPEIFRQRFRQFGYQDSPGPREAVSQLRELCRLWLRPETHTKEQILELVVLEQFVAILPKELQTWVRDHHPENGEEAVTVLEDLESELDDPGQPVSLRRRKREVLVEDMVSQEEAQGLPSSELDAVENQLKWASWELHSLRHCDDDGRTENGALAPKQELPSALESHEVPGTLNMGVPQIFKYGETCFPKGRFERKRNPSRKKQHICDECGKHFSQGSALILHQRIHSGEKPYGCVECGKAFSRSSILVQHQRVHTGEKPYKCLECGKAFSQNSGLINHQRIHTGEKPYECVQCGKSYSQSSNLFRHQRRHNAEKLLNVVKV

effect of a mutation on the interaction | Variant
with no effect | T25A
with no effect | I678V

Variants of: B2
Settings: with lce1b_human LCE1B

effect of a mutation on the interaction | Variant
with no effect | Y40C

Variants of: B3
Settings: with KRT13, P13646

effect of a mutation on the interaction | Variant
with no effect | A517G

Variants of: B4
Settings: with tfp11_human TFIP11, Q9UBB9
Chain of tfp11_human TFIP11, Q9UBB9 (Q9UBB9 whole entry): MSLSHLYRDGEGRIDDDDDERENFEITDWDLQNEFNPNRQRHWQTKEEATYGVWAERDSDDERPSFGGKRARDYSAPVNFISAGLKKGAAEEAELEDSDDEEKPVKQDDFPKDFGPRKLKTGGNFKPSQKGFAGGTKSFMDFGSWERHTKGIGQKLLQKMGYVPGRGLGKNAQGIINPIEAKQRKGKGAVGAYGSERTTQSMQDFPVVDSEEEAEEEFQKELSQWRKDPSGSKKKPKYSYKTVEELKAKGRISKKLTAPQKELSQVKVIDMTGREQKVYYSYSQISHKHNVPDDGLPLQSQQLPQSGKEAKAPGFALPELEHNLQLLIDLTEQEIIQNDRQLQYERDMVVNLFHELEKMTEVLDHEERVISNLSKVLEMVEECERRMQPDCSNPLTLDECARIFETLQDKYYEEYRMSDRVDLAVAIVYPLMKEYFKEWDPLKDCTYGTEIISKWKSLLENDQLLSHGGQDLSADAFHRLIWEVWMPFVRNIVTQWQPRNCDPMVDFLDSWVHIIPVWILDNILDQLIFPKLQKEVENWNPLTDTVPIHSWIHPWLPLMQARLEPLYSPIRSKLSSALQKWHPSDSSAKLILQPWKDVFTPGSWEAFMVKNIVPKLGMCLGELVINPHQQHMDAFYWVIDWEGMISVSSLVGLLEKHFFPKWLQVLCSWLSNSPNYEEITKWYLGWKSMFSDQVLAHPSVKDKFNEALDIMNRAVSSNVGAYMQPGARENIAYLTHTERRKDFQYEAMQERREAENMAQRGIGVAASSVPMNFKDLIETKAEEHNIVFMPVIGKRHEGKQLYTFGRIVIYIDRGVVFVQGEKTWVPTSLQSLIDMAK

effect of a mutation on the interaction | Variant
with no effect | G17S

Variants of: B4
Settings: with tpm3_human TPM3, P06753
Chain of tpm3_human TPM3, P06753 (P06753 whole entry): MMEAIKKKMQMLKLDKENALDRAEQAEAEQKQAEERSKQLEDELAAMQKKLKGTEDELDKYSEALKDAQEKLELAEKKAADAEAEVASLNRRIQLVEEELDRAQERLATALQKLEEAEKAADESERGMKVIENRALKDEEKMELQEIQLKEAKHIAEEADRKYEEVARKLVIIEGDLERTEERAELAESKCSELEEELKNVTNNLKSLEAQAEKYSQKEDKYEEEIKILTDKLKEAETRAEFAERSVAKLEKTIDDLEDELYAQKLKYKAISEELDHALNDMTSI

effect of a mutation on the interaction | Variant
with no effect | G17S

Variants of: B5
Settings: with nck2_human NCK2, O43639
Chain of nck2_human NCK2, O43639 (O43639 whole entry): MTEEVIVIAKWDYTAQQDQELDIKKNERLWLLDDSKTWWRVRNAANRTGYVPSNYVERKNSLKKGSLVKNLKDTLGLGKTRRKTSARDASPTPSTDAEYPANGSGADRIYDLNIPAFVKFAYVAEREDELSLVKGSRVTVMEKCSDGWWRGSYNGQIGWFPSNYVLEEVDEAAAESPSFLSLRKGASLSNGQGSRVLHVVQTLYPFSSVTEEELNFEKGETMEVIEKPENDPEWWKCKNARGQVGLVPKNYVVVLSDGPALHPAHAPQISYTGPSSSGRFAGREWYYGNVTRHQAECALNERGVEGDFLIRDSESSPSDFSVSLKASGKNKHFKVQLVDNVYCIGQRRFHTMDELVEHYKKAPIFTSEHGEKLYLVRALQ

effect of a mutation on the interaction | Variant
with no effect | D115N

Variants of: B6
Settings: with pr38a_human PRPF38A

effect of a mutation on the interaction | Variant
disrupting interaction strength | G242R
disrupting interaction strength | G225R
with no effect | V182M

Variants of: B7
Settings: with rras2_human RRAS2, P62070

effect of a mutation on the interaction | Variant
with no effect | R238Q
